± gives the uncertainty stated by the source.

A short description of this data set: amyloid nucleation score (Sup35N fusion, yeast selection) (log enrichment); library NNK2; higher = more nucleation; inactive = no reads after selection. Put shortly:
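The nucleation score is the DiMSum log enrichment of output over input reads, centred on the mode score of non-aggregating sequences. Only sequences with 100 or more input reads were scored, using Illumina sequencing of input and output plasmid inserts. Psi-negative yeast expressing Sup35N fused to peptides of 20 random codons were induced 24 hours with 100 μM copper sulfate and grown 7 days at 30°C on medium lacking adenine and uracil.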

Substance IVQKFCVASCGLEHYVF displayed an amyloid nucleation score of 6.07 ± 0.073.

Substance KDNLDQYFTERRGWWLCEVV came in with an amyloid nucleation score of -0.043 ± 0.5.

Take DGVRGLYKRLRMCTTCLCTL: the amyloid nucleation score stood at 6.48 ± 0.079.

The substance EKYRGSLMSRLAKMWNCCVT yielded an amyloid nucleation score of 1.04 ± 0.27.

Substance VTTVRSPILLTLRTVPF had an amyloid nucleation score of 0.425 ± 0.38.

As to LGIIQTVCRHGLQFMCVSRG, the amyloid nucleation score is -0.122 ± 0.49.

Substance LYTRMPMYGHSEKFLVCESS showed an amyloid nucleation score of -0.486 ± 0.27.

WSVCARYSSGVCIAHCTQMK: the amyloid nucleation score is 1.3 ± 0.25.

For the substance YSMRWFVGGFILGYCVCGQV, the amyloid nucleation score was 6.256 ± 0.037.

In turn, GTCLSFYEFNSWWIIKMFSK displayed an amyloid nucleation score of 0.657 ± 0.23.

On to ICLVRWDMKSRVDGTSGM, for which the amyloid nucleation score was 5.194 ± 0.037.

Substance YDSFMVGVCYAG came in with an amyloid nucleation score of -1.42 ± 1.1.

GCFERGNLFNFV: the amyloid nucleation score result is “inactive”.

YICRNLISESLCLYYTGARG yielded an amyloid nucleation score of 5.03 ± 0.065.

As for CTSVGFTYHRDFWYMGFWSR, the amyloid nucleation score came to 0.919 ± 0.15.

For the substance VYHLLFSGC, the amyloid nucleation score is 0.219 ± 0.33.

Take LNNNGASNGFTTYSALNVG: the amyloid nucleation score was -0.59 ± 0.28.

On to LYIYLNYFNTAVTFYGCVCS, for which the amyloid nucleation score came to 3.94 ± 0.052.

KLAYCYSSYSHHD returned an amyloid nucleation score of 0.316 ± 0.65.

Turning to YIWNCDSDSIVPLLL, the amyloid nucleation score result was “inactive”.

In turn, GMWFLRLSSFTCI returned an amyloid nucleation score of 5.722 ± 0.049.

HVAEEVMGIVARVRVLMILS displayed an amyloid nucleation score of -0.598 ± 0.45.

As for YQSFFVINLYNGLHTRGMRV, the amyloid nucleation score is 7.701 ± 0.055.

Consider YTHVNRWTCCSSIEICDWSY, for which the amyloid nucleation score was found to be 6.957 ± 0.047.

For the substance RIFMWAYLAYCDNISEVRRR, the amyloid nucleation score was -0.554 ± 1.

Substance SVKWKTRDEKS had an amyloid nucleation score of -0.711 ± 0.54.

Substance VVFRLRSNRGNVVPRSWAWC displayed an amyloid nucleation score of 1.71 ± 0.13.

As for PSFILIFNGCKWVPYASKCG, the amyloid nucleation score is 8.916 ± 0.021.

With DVFWYDATTRYGGRCRGQIS, the amyloid nucleation score is 1.11 ± 0.31.

For the substance VYFSQDQFSYYFTRVESVEV, the amyloid nucleation score was -0.191 ± 0.45.

LNNIFDLQYWQLWMSRQVKS displayed an amyloid nucleation score of 0.809 ± 0.14.

IGIIYFIARFAVVPRSGIRQ registered an amyloid nucleation score of -0.114 ± 1.

For the substance SLMCIIFLQYWNLLLTIRVT, the amyloid nucleation score result was “inactive”.

For IFRSSTLIDLKDLGLTSH, the amyloid nucleation score is 1.27 ± 0.096.

With PSSFNSRFFCLVTNGWQYMS, the amyloid nucleation score entry was “inactive”.

In turn, RRIIQCSDEFVLYQCNMLRC gave an amyloid nucleation score of 0.759 ± 0.41.

In turn, LNWGSNIQAGVHTSRPWGSY yielded an amyloid nucleation score of 0.248 ± 0.43.

In the case of NLVTFVWKRYLINIISVTKD, the amyloid nucleation score is -1.51 ± 1.1.

As to PMMYQRLCIMFFCSTITLMI, the amyloid nucleation score turned out to be 1.92 ± 0.14.

SVNWEDKDLGVGSNLEIASL showed an amyloid nucleation score of -0.889 ± 1.

As for HDTLIMFTYKVVVLLASERF, the amyloid nucleation score was -0.549 ± 0.63.

NRYYYISSQGDDMQAGCFHY: the amyloid nucleation score is -0.963 ± 1.1.

For the substance RPWLNRAFDVISYYAIMACR, the amyloid nucleation score came to 0.091 ± 0.3.

In turn, TRYRLDACRGHAWYSVFFLM registered an amyloid nucleation score of -0.286 ± 0.49.

On to FVLLGGMTWHT, for which the amyloid nucleation score stood at 5.512 ± 0.027.

With FVSYED, the amyloid nucleation score was -0.793 ± 1.1.

With LCFSVNLARNLWLDNWVGGR, the amyloid nucleation score worked out at 6.12 ± 0.084.

Substance KAIDLRVPSMYYRPWVV registered an amyloid nucleation score of -0.58 ± 0.76.

On to IFLDHYS, for which the amyloid nucleation score is -0.026 ± 0.35.

As for YYEMFCYSCPSDRPGISNDA, the amyloid nucleation score was 8.827 ± 0.035.

The substance SAYGVVSSWMR displayed an amyloid nucleation score of -0.266 ± 0.55.

Substance YQPRAYGKSPSIQFGQIVKQ returned an amyloid nucleation score of 0.106 ± 0.31.

Substance SSMVQR came in with an amyloid nucleation score of -0.917 ± 0.55.

CNNQRYVNNGITRNGRNDAG displayed an amyloid nucleation score of -0.604 ± 0.76.

DPNLGLSTW returned an amyloid nucleation score of 0.47 ± 0.34.

On to HSRRGGFRKYSSTLARPASD, for which the amyloid nucleation score is -0.799 ± 0.49.

The values are drawn from the supplement of paper PMC12042874.
